Results from patent US20120277161A1, “INHIBITION OF MULTIPLE CELL ACTIVATION PATHWAYS” (INTER-K PTY LIMITED, priority 2009, published 2012).
Values belong to the compound of their own block, whether it stands above or below them.

What was measured:
c-SRC (h) = c-SRC (h) (Homo sapiens, UniProt P12931); assay: c-Src kinase activity assay (cell-free, 33P-ATP); assay type: biochemical; conditions: peptide 50 μM, relative to control
Experimental: In a final reaction volume of 25 μL, c-SRC (h) (5-10 mU) is incubated with 8 mM MOPS pH 7.0, 0.2 mM EDTA, 250 μM KVEKIGEGTYGVVYK (SEQ ID No. 19) (Cdc2 peptide), 10 mM MgAcetate and [γ-33P-ATP] (specific activity approx. 500 cpm/pmol, concentration as required). The reaction is initiated by the addition of the MgATP mix. After incubation for 40 minutes at room temperature, the reaction is stopped by the addition of 5 μL of a 3% phosphoric acid solution. 10 μL of the reaction is then spotted onto a P30 filtermat and washed three times for 5 minutes in 75 mM phosphoric acid and once in methanol prior to drying and scintillation counting.

[1] = system: cell adhesion mediated ERK activation in HT29 human colon cancer cells; assay: ERK cell adhesion assay (fibronectin), phospho-ERK1/2 ELISA; assay type: cell-based
Experimental: Experimental wells were coated with 100 μL of fibronectin (1-10 μg/mL, Sigma-Aldrich) or 100 μL of 1% BSA (negative control, Sigma-Aldrich). Plates were then incubated at 37° C. for 1 hour before being washed with 100 μL PBS. 100 μL of 1% BSA was then added to each well for 30 minutes to block non-specific binding (37°). HT29 human colon cancer cells were harvested using 0.5% trypsin-EDTA and 50,000 cells were plated into each empty well in 100 μL of serum free media (SFM; DMEM supplemented with 1% (v/v) L-glutamine and 2% (v/v) 1M HEPES solution). 100 μL of SFM with or without PP2 (final concentration 5 μM, specific c-Src inhibitor, Sigma-Aldrich), was then added to each well. Plates were centrifuged at 200 rpm for 5 minutes and then incubated at 37° C. for one hour. Phospho-ERK1/2 levels in the cell groups was evaluated by ELISA (Active Motif assay kit, Australian Biosearch) essentially as described in Example 7.1.
A study was undertaken to evaluate the effect of the PI3K inhibitor Wortmannin (0.25 μM final concentration) on cell adhesion mediated ERK activation in HT29 human colon cancer cells. Phospho-ERK1/2 levels were measured as an indicator of ERK activation substantially as described in Example 7.1. Increasing levels of phospho-ERK1/2 in HT29 cells correlated with increasing levels of fibronectin in the absence of serum stimulation of the HT29 cells.

human Lyn = human Lyn (Homo sapiens, UniProt P07948); assay: Lyn kinase activity assay; assay type: biochemical; conditions: peptide 50 μM
Sequence of human Lyn (P07948 whole entry): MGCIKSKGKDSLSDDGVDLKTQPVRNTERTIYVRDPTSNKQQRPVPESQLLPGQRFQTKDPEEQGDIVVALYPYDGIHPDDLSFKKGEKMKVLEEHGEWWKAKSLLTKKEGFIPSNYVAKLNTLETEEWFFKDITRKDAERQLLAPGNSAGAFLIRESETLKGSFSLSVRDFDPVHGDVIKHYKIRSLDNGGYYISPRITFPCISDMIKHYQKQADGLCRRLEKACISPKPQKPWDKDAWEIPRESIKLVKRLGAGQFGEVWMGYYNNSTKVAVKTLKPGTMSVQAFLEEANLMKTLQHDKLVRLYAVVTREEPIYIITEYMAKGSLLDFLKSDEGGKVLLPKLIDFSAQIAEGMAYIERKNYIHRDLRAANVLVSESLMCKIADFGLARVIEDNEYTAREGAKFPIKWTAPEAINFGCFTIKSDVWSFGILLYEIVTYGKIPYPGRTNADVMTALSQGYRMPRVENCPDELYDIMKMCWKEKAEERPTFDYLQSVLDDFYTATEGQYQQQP
Experimental: In a final reaction volume of 25 μl, human Lyn is incubated with the RSKAKNPLYR peptide (SEQ ID No: 6) in 50 mM Tris buffer pH 7.5, 0.1 mM EGTA, 0.1 mM Na3VO4, 1% mercaptoethanol, 0.1 mg/ml poly(Glu,Tyr) 4:1, 10 mM Mg acetate and [γ-33P-ATP] (specific activity approx. 500 cpm/pmol). The reaction was initiated by the addition of the MgATP mix, incubated for 40 minutes at room temperature prior to being stopped and kinase activity assessed by scintillation counting as per the protocol described for c-Src described in Example 1.1.

[2] = system: ADDP human ovarian carcinoma cell line; assay: Cell proliferation (MTT) assay, ADDP cells; assay type: cell-based
Experimental: (§1) 6.1 Cell Proliferation (MTT) Assay Single cell suspensions of viable trypsinised cells were seeded into 96-well tissue culture plates at a density of 2×10^3 cells per well in a volume of 100 μl of a suitable culture media supplemented with heat inactivated foetal calf serum (FCS) (e.g., Dulbecco's Modified Eagles Medium (DMEM), with 10% v/v FCS, 1% L-glutamine, 2% (v/v) Hepes, and antibiotics). A set of triplicate wells was prepared for each concentration of the peptide dendrimer being tested. Additional sample wells containing untreated cells or media alone were set up in each treatment plate and processed in parallel as reference controls. A zero-time plate of untreated cells and media-alone wells was simultaneously prepared and an MTT assay carried out on this plate at the time of addition of the kinase inhibitor (i.e., polypeptide or dendrimer) to treatment plates. All plates were cultured for 24 hours before addition of the test dendrimer.
To prepare the MTT solution 100 mg of MTT (3-(4,5-dimethylthiazolyl-2)-2,5-diphenyltetrazolium bromide) (Cat #. M-128, Sigma, St Louis Mo.), is mixed with 20 ml of PBS at pH 7.4. The resulting solution is filter sterilized (0.2 μM syringe filter) and stored at 4° C. protected from light until use. MTT substrate is cleaved in growing cells to yield a water insoluble salt. After solubilisation of the salt crystals, a coloured product is produced the measurement of which allows quantitation of the proliferative activity of the cultured cells.
Appropriate concentrations of the kinase inhibitor were prepared by dilution of freshly prepared sterile 1 mM stock solutions into cell culture media to give a final well volume of 200 μl containing 10% v/v FCS. The zero-plate was processed by addition of MTT at this time. Cell culture was continued for a further 24 or 48 hours before addition of 20 μl of MTT in PBS (5 mg/ml, 0.2 um filter sterilised). The MTT cell proliferation assay measures cell proliferation rate and, in instances where cell viability is compromised, the assay indicates a comparative reduction in cell viability. After a 3 hour incubation in the presence of MTT (5% CO2 in air at 37° C.), plates were centrifuged at 450 g for 5 minutes, supernatant was removed by gentle suction and precipitated tetrazolium salt resuspended into 150 μl DMSO:glycine (0.1M glycine, 0.1M NaCl pH 10.5) (6:1 v/v) solution. Plates were gently vortexed to complete solubilisation of crystalline material and absorbance was read at 550 nm using a microplate reader. Sample data were processed to determine the comparative growth of treated samples relative to untreated controls.

MEK1 (h) = MEK1 (h) (Homo sapiens, UniProt Q02750); assay: MEK1 kinase activity assay; assay type: biochemical; conditions: 50 μM
Experimental: The reaction is initiated by the addition of the MgATP. After incubation for 40 minutes at room temperature, 5 μL of this incubation mix is used to initiate an ERK2 (m) assay.

human Yes = human Yes (Homo sapiens, UniProt P07947); assay: Yes kinase activity assay; assay type: biochemical; conditions: peptide 50 μM
Sequence of human Yes (P07947 whole entry): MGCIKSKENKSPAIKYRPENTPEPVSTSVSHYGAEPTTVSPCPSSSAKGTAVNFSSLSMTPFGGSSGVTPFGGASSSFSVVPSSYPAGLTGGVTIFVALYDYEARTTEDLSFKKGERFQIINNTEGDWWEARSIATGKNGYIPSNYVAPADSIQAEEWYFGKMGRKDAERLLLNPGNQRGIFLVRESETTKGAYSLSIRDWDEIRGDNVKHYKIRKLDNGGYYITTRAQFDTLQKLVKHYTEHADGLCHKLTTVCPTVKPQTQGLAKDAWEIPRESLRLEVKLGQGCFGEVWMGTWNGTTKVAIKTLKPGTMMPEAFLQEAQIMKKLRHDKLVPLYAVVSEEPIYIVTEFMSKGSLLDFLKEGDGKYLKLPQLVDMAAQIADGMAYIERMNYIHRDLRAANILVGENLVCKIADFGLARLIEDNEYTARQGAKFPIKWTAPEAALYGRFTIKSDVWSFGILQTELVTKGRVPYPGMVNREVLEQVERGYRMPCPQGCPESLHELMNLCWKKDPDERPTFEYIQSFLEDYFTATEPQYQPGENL
Experimental: In a final reaction volume of 25 μl, human Yes is incubated with the RSKAKNPLYR peptide (SEQ ID No: 6) in 8 mM MOPS buffer pH 7.0, 0.2 mM EDTA, 0.1 mg/ml poly(Glu,Tyr) 4:1, 10 mM Mg acetate and [γ-33P-ATP] (specific activity approx. 500 cpm/pmol). The reaction is initiated by the addition of the MgATP mix, incubated for 40 minutes at room temperature prior to being stopped and kinase activity assessed by scintillation counting again as per the protocol described for c-Src in Example 1.1.

[3] = system: A2780 ovarian cancer cell line; assay: Cell proliferation (MTT) assay, A2780 cells; assay type: cell-based, human; conditions: drug alone; FIG. 6
Experimental: as §1, with “A zero-time plate of untreated cells and media-alone wells was simultaneously prepared and an MTT assay carried out on this plate at the time of addition of the kinase inhibitor (i.e., polypeptide or dendrimer) to treatment plates. All plates were cultured for 24 hours before addition of the test dendrimer.” left out
To prepare the MTT solution 100 mg of MTT (3-(4,5-dimethylthiazolyl-2)-2,5-diphenyltetrazolium bromide) (Cat #. M-128, Sigma, St Louis Mo.), is mixed with 20 ml of PBS at pH 7.4. […] After solubilisation of the salt crystals, a coloured product is produced the measurement of which allows quantitation of the proliferative activity of the cultured cells.
Appropriate concentrations of the kinase inhibitor were prepared by dilution of freshly prepared sterile 1 mM stock solutions into cell culture media to give a final well volume of 200 μl containing 10% v/v FCS. […] Plates were gently vortexed to complete solubilisation of crystalline material and absorbance was read at 550 nm using a microplate reader. […]

Compound: NPLYR [Peptide 8]
% Inhibition of control, c-Src tyrosine kinase activity (c-SRC (h)): negligible or no c-Src inhibitory activity

Compound: COC[C@H]1OC(=O)c2coc3c2[C@@]1(C)C1=C(C3=O)[C@@H]2CCC(=O)[C@@]2(C)C[C@H]1OC(C)=O [Wortmannin]
reduction of cell adhesion mediated ERK activation ([1]; 0.25 μM, HT29 cells): about 55%

% Inhibition of control, c-Src tyrosine kinase activity (c-SRC (h)): approx. 57% | inhibition of Lyn activity (human Lyn): only relatively low level inhibition | inhibition of MEK1 (MEK1 (h)): negligible inhibition | inhibition of Yes activity (human Yes): only relatively low level inhibition
Compound: RSKAKNPLYR [Peptide 1]
effect in combination with cisplatin, ADDP cells ([2]; 20 μM peptide, 72 hour culture, data not shown): synergistic effect

Compound: RSKAK [Peptide 6]
% Inhibition of control, c-Src tyrosine kinase activity (c-SRC (h)): negligible or no c-Src inhibitory activity

% Inhibition of control, c-Src tyrosine kinase activity (c-SRC (h)): No inhibitory activity
Compound: WQTGT [Peptide 7]

Compound: CC(C)(C)n1nc(-c2ccc(Cl)cc2)c2c(N)ncnc21 [PP2]
phospho-ERK levels, HT29 cells on fibronectin ([1]; 5 μM, no serum stimulation, results not shown): markedly reduced

Compound: N.N.[Cl][Pt][Cl] [cisplatin, cis-diamminedichloroplatinum (II), reference compound]
inhibition of growth of ADDP cell line ([2]; drug alone, FIG. 6): substantially less inhibition of growth | inhibition of growth of A2780 cell line [3]: highly susceptible
